Reference: article PMC12583987, “Impact of Hanks Kinase‐Dependent Phosphorylation of CodY on the Physiology and Virulence in Bacillus cereus” (MicrobiologyOpen, 2025)

How the values were obtained:
Assay in all cases: SEC; Superdex 75 column on an Akta Purifier, PBS 1x, 0.5 mL/min; 75 uL (about 150 ug) of each purified protein loaded individually; column calibrated with a low molecular weight kit; oligomer size from the elution volume
[1] = target: CodY-S215A (Bacillus cereus ATCC 14579), N-terminal (His)6-tagged (Bacillus cereus ATCC 14579) (UniProt Q819X8)
[2] = target: CodY-S215D (Bacillus cereus ATCC 14579), N-terminal (His)6-tagged (Bacillus cereus ATCC 14579) (UniProt Q819X8)
[3] = target: the molecule itself

## CodY-S215A (Bacillus cereus ATCC 14579), N-terminal (His)6-tagged (from UniProt Q819X8 1-259) (natural protein)
[1]
  stoichiometry N: 2

## CodY-S215D (Bacillus cereus ATCC 14579), N-terminal (His)6-tagged (from UniProt Q819X8 1-259) (natural protein)
[2]
  stoichiometry N: 2

B1: CodY (Bacillus cereus ATCC 14579), N-terminal (His)6-tagged (natural protein)
chain: MELLAKTRKLNALLQSAAGKPVNFREMSDTMCEVIEANVFVVSRRGKLLGYAIHQQIENERMKQMLAERQFPEEYTQSLFNITETSSNLDVNSAYTAFPVENRELFGQGLTTIVPIVGGGERLGTLVLARLGQEFLDDDLILAEYSSTVVGMEILREKAEEIEEEARSKAVVQMAISSLSYSELEAIEHIFEELNGTEGLLVASKIADRVGITRSVIVNALRKLESAGVIESRSLGMKGTYIKVLNDKFLQELAKLKTN
notes: CodY, global transcriptional regulator of Bacillus cereus ATCC 14579; codY PCR-amplified from the chromosome with primers SAT31 + SAT32 and cloned in pQE-30; printed monomer Mw 29.8 kDa; also called CodY WT; wild-type CodY; source: E. coli M15 [pREP4], purified (Ni-NTA, desalted on PD10)
[3]
  stoichiometry N: 2
